# Reference: paper PMC6666309
# pKd: −log10 of the molar value.
# What was measured:
# [1] = target: pro-cathepsin D (UniProt P07339); test: MST
# [2] = target: pro-cathepsin D (UniProt P07339)
# [3] = target: pro-cathepsin D (UniProt P07339); remark: listed apart in the source
# Chain of pro-cathepsin D (P07339 21-412): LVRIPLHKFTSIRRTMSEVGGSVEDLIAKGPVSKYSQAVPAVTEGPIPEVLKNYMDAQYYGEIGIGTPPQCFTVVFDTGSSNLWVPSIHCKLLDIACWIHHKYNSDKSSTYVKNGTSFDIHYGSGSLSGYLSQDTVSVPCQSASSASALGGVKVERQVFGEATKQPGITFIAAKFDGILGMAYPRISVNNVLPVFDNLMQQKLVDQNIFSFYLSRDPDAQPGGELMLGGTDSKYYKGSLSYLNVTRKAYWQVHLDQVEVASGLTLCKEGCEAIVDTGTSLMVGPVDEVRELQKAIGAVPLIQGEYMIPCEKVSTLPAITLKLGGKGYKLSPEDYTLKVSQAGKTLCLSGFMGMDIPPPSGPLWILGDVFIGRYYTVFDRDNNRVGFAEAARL
substance,measurement,setting,value
multi-granulin domain peptide BAC (domain or fragment),pKd,[1],5.55
same,"DSF - ΔTm of proCTSD (1 μM proCTSD with 2 μM peptide BAC, pH 7.4)",[2],-3.38 °C
same,"Normalized Vmax of CTSD activity (20 nM proCTSD, 65 nM peptide BAC, pH 3.5)",[2],1.89
multi-granulin domain peptide CDE (domain or fragment),pKd,[1],6.89
same,DSF - Tm reduction of proCTSD with CDE at a 1:1 molar ratio,[3],2.75 °C
same,"DSF - ΔTm of proCTSD with peptide CDE, pH 7.4",[2],-2.78 °C
same,"Normalized Vmax of CTSD activity (20 nM proCTSD, 65 nM peptide CDE, pH 3.5)",[2],1.84
